Drawing on article PMC11480844 (2024), this text covers ratio to parent for 75 variants.

B1: H2-Kb / Ed45 (parent complex)
chain 1: GEQVEQRPPHLSVREGDSAVIICTYTDPNSYYFFWYKQEPGAGLQLLMKVFSSTEINEGQGFTVLLNKKDKQLSLNLTAAHPGDSAVYFCAVSGTNAYKVIFGKGTHLHVLP
chain 2: EAAVTQSPRSKVAVTGGKVTLSCHQTNNHDYMYWYRQDTGHGLRLIHYSYVADSTEKGDIPDGYKASRPSQENFSLILELASLSQTAVYFCASARGFQDTQYFGPGTRLLVL
chain 3: not shown
chain 4: IQKTPQIQVYSRHPPENGKPNILNCYVTQFHPPHIEIQMLKNGKKIPKVEMSDMSFSKDWSFYILAHTEFTPTETDTYACRVKHDSMAEPKTVYWDRDM
chain 5: SIINFEKL
B2: H2-Kb / Ed10 (parent complex)
chain 1: GEQVEQRPPHLSVREGDSAFIICTYTDSATAYFYWYKQEPGAGLQLLMSVFSNVDRKEEQGLTVLLNKKDKRLSLNLTAAHPGDSAVYFCAVRGTGYQNFYFGKGTSLTVIP
chain 2: AQTIHQWPVAEIKAVGSPLSLGCTIKGKSSPNLYWYWQATGGTLQQLFYSITVGQVESVVQLNLSASRPKDDQFILSTEKLLLSHSGFYLCAWSPGYEQYFGPGTRLTVL
chain 3: not shown
chain 4: B1 chain 4
chain 5: SIINFEKL
Note: test concentration or dose not given here.

Variants of B1 are the subject of one assay. Kind of assay: % of reporter cells activated (NFAT-GFP), raw.
As for chain 5 F5V, the ratio to parent was 0.617.

With chain 5 F5R, the ratio to parent is 1.73.

Consider chain 5 F5N, for which the ratio to parent was determined as 1.23.

Turning to chain 5 F5I, the ratio to parent was found to be 0.389.

Take chain 5 F5S: the ratio to parent is 1.09.

Consider chain 5 F5C, for which the ratio to parent is 1.61.

Consider chain 5 F5A, for which the ratio to parent was determined as 0.77.

As to chain 5 F5E, the ratio to parent stood at 1.34.

Take chain 5 I2K: the ratio to parent is 1.83.

For the variant chain 5 I2A, the ratio to parent turned out to be 1.32.

Regarding chain 5 I2V, the ratio to parent was found to be 1.48.

Consider chain 5 I2D, for which the ratio to parent was 1.34.

Regarding chain 5 I2P, the ratio to parent stood at 1.32.

In the case of chain 5 I2T, the ratio to parent stood at 1.23.

On to chain 5 I2L, for which the ratio to parent stood at 2.14.

Consider chain 5 I2R, for which the ratio to parent was found to be 1.63.

Take chain 5 I2H: the ratio to parent came to 1.61.

In the case of chain 5 I2M, the ratio to parent came out at 2.11.

In the case of chain 5 I2C, the ratio to parent amounted to 1.39.

With chain 5 I2F, the ratio to parent amounted to 1.21.

On to chain 5 S1T, for which the ratio to parent was 0.483.

As to chain 5 S1G, the ratio to parent is 0.388.

With chain 5 S1R, the ratio to parent is 0.648.

Turning to chain 5 S1A, the ratio to parent is 0.0786.

For the variant chain 5 S1I, the ratio to parent was 0.0549.

With chain 5 S1Q, the ratio to parent turned out to be 0.331.

As for chain 5 S1N, the ratio to parent stood at 0.0722.

Turning to chain 5 I3M, the ratio to parent is 2.2.

Regarding chain 5 I3H, the ratio to parent was found to be 2.02.

Take chain 5 I3K: the ratio to parent is 2.08.

As for chain 5 I3N, the ratio to parent turned out to be 1.85.

In the case of chain 5 I3R, the ratio to parent was found to be 2.47.

With chain 5 I3S, the ratio to parent is 1.96.

For the variant chain 5 I3A, the ratio to parent came to 2.14.

Turning to chain 5 I3V, the ratio to parent worked out at 2.18.

In the case of chain 5 N4R, the ratio to parent stood at 0.533.

For chain 5 N4A, the ratio to parent stood at 0.0797.

In the case of chain 5 N4W, the ratio to parent is 0.125.

In the case of chain 5 N4M, the ratio to parent is 0.0786.

With chain 5 N4H, the ratio to parent was found to be 0.668.

Turning to chain 5 N4T, the ratio to parent is 0.0812.

chain 5 N4K: the ratio to parent was determined as 1.07.

chain 5 K7L: the ratio to parent was found to be 0.569.

Turning to chain 5 K7A, the ratio to parent is 0.925.

For the variant chain 5 K7E, the ratio to parent worked out at 0.0609.

chain 5 K7Q: the ratio to parent is 0.193.

Turning to chain 5 K7N, the ratio to parent was 0.639.

For chain 5 K7F, the ratio to parent was 0.418.

As to chain 5 K7W, the ratio to parent is 1.18.

As for chain 5 K7C, the ratio to parent was found to be 0.0944.

For the variant chain 5 L8Y, the ratio to parent came out at 1.85.

Take chain 5 L8A: the ratio to parent is 1.77.

Take chain 5 L8K: the ratio to parent was found to be 1.87.

As to chain 5 L8G, the ratio to parent is 1.57.

For chain 5 L8D, the ratio to parent worked out at 1.52.

Consider chain 5 L8S, for which the ratio to parent was 1.53.

As for chain 5 L8M, the ratio to parent turned out to be 1.65.

For chain 5 L8E, the ratio to parent was found to be 1.52.

chain 5 L8P: the ratio to parent came out at 1.68.

Regarding chain 5 L8W, the ratio to parent came to 1.7.

As for chain 5 L8I, the ratio to parent is 1.62.

For chain 5 E6M, the ratio to parent turned out to be 0.312.

As for chain 5 E6L, the ratio to parent was determined as 0.26.

Take chain 5 E6V: the ratio to parent came to 0.148.

For the variant chain 5 E6S, the ratio to parent worked out at 0.801.

Turning to chain 5 E6Y, the ratio to parent amounted to 0.198.

As for chain 5 E6A, the ratio to parent was found to be 1.48.

chain 5 E6K: the ratio to parent came to 0.861.

For the variant chain 5 E6H, the ratio to parent amounted to 0.541.

For the variant chain 5 E6P, the ratio to parent came out at 1.12.

As for chain 5 E6C, the ratio to parent was determined as 0.258.

Variants of B2 are the subject of another assay. Kind of assay: % of reporter cells activated (NFAT-GFP), raw.
Regarding chain 5 E6S, the ratio to parent is 0.0168.

Take chain 5 E6G: the ratio to parent was 0.824.

As to chain 5 S1H, the ratio to parent was 1.01.

Turning to chain 5 S1W, the ratio to parent was found to be 0.717.
